Assays:
[1] = target: dynein-dynactin-BicDR1 complex assembled with wtDyn (wtDDR) (human | pig | mouse) (UniProt Q14204); assay: three-color TIRF comigration with processive complexes
[2] = target: WT dynein-GFP (human) (UniProt Q14204); assay: real-time TIRF imaging of the initiation of motility
[3] = target: wild-type human dynein (wtDyn) (human) (UniProt Q14204); assay: single-molecule colocalization
[4] = target: the molecule itself; assay: mass photometry

dynein-dynactin-BicDR1 complex assembled with wtDyn (wtDDR) (human | pig | mouse), sequence (Q14204 whole entry, looked up, one chain of several): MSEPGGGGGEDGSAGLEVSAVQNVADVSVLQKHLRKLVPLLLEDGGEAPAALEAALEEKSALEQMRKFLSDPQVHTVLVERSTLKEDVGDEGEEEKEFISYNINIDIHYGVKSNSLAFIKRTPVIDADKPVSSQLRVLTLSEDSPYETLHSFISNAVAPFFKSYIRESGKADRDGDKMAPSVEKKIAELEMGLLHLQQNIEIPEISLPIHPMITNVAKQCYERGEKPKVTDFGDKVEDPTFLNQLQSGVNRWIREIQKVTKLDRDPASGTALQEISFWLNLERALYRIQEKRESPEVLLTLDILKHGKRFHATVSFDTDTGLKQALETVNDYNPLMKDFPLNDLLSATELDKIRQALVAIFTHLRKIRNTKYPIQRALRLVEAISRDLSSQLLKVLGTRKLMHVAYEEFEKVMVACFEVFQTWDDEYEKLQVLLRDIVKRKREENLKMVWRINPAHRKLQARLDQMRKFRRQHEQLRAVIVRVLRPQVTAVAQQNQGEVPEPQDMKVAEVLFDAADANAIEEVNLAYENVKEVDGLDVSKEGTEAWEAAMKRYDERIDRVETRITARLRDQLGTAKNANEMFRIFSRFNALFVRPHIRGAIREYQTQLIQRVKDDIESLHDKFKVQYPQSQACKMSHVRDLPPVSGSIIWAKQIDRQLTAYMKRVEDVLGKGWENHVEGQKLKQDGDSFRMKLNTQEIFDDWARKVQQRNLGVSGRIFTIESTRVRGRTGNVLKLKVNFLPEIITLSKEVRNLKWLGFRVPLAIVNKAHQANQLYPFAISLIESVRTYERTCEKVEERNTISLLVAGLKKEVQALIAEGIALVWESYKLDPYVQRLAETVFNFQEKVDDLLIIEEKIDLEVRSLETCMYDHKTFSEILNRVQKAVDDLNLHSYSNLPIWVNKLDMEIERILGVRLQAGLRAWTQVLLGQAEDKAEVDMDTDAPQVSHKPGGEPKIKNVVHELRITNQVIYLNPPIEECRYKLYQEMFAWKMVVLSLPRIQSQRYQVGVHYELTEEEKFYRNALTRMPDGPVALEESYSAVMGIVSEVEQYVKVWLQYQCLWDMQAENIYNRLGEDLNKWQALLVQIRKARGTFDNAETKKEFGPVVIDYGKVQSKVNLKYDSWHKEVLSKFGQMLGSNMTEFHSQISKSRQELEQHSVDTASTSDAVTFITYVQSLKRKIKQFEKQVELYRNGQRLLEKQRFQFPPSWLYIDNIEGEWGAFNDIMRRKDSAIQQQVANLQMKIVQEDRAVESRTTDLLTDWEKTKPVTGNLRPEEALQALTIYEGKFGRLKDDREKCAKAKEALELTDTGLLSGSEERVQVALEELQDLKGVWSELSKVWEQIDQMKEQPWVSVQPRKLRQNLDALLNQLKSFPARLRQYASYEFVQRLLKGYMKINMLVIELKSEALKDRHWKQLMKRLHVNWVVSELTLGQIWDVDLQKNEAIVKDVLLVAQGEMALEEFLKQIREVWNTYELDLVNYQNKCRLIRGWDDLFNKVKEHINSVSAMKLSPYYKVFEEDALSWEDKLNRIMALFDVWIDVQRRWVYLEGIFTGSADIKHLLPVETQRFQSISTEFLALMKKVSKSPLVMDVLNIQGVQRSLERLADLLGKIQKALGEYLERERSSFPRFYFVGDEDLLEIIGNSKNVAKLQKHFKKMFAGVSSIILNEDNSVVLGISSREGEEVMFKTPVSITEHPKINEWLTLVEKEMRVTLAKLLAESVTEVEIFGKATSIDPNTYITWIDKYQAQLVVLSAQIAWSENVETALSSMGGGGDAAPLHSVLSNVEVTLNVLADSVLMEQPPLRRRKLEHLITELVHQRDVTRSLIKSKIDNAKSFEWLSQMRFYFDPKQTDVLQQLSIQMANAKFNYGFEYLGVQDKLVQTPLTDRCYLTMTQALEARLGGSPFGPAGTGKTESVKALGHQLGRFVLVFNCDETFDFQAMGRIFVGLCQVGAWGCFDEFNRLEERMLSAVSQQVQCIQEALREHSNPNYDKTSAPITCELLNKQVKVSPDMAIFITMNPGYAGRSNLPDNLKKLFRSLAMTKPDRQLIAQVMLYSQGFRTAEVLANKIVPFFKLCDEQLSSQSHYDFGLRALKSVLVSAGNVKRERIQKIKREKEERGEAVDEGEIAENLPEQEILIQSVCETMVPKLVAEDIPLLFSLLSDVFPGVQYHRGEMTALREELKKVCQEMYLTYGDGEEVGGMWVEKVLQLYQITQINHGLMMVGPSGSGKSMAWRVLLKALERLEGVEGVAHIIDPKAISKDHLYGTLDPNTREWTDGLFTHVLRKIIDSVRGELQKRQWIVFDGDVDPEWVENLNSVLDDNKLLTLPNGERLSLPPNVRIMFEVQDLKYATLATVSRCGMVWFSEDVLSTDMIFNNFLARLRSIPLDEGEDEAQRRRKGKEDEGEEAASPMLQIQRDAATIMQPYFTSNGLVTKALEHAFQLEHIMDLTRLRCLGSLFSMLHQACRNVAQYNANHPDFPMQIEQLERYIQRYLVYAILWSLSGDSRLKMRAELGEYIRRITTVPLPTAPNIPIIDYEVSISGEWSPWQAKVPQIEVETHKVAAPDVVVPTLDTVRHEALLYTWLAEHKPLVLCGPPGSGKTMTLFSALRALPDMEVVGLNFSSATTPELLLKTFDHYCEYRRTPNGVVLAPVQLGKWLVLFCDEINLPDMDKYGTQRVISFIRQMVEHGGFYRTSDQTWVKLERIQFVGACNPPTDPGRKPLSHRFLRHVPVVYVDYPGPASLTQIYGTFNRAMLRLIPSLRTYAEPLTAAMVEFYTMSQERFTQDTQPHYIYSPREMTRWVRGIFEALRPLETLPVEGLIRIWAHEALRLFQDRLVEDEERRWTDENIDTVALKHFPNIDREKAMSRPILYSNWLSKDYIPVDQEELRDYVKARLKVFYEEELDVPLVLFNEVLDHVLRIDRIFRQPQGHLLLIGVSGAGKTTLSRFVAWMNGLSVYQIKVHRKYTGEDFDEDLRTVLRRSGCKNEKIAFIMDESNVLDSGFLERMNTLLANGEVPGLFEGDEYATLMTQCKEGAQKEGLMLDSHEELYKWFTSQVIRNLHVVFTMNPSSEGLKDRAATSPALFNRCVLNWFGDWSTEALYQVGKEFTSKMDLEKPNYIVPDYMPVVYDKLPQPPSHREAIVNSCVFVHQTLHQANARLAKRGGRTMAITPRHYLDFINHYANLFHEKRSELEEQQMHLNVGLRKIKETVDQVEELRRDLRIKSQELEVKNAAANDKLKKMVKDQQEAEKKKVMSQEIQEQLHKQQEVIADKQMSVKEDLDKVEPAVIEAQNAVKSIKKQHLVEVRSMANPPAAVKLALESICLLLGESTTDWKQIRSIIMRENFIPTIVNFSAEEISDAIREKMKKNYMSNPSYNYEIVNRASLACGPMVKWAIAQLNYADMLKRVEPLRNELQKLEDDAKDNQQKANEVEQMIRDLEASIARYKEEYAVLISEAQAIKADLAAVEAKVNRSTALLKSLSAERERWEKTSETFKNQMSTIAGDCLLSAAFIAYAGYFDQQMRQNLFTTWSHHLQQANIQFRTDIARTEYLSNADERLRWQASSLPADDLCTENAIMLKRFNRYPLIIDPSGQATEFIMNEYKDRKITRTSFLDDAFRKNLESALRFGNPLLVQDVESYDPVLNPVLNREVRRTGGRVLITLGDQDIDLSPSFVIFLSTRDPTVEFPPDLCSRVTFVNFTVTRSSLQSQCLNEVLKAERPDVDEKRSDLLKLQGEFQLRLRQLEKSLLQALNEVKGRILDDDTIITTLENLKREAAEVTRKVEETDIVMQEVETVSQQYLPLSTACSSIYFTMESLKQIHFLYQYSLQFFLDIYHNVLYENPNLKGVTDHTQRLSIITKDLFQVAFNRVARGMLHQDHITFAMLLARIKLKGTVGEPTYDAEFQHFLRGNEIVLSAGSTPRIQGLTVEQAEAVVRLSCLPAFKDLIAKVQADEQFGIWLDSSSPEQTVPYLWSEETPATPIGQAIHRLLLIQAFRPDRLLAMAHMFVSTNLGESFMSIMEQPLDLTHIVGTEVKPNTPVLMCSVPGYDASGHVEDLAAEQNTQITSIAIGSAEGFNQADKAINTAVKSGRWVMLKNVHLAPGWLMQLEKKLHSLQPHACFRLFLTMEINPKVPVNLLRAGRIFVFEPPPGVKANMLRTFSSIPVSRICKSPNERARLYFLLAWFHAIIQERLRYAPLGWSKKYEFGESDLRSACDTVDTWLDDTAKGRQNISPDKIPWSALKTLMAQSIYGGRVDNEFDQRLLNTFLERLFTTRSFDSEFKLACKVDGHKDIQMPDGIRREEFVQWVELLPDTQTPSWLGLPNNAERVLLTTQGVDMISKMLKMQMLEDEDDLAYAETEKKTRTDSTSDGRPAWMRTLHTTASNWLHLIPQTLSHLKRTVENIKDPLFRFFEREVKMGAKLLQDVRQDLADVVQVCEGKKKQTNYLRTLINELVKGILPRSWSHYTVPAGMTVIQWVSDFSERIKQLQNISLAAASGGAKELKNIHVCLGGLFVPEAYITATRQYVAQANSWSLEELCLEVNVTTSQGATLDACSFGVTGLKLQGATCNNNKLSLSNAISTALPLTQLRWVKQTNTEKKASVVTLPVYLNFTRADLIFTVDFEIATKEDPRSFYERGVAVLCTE

human Lis1 (full-length) (from UniProt P43034 1-410) (natural protein)
percent of DDR complexes co-migrating with Lis1 [1]: 70%

pig brain dynactin (from UniProt A0A287B8J2 1-1281) (complex)
percent of dynein-colocalized Nde1 immediately released, with Lis1 [2]: 50%
percent reduction of Nde1 colocalization to dynein [3]: 37%

B1: human Nde1 (full-length) (natural protein)
chain: MEDSGKTFSSEEEEANYWKDLAMTYKQRAENTQEELREFQEGSREYEAELETQLQQIETRNRDLLSENNRLRMELETIKEKFEVQHSEGYRQISALEDDLAQTKAIKDQLQKYIRELEQANDDLERAKRATIMSLEDFEQRLNQAIERNAFLESELDEKENLLESVQRLKDEARDLRQELAVQQKQEKPRTPMPSSVEAERTDTAVQATGSVPSTPIAHRGPSSSLNTPGSFRRGLDDSTGGTPLTPAARISALNIVGDLLRKVGALESKLASCRNLVYDQSPNRTGGPASGRSSKNRDGGERRPSSTSVPLGDKGLDTSCRWLSKSTTRSSSSC
modifications: LD655 or LD555 dye in the fluorescence assays
stoichiometry N [4]: 2

B2: Nde1^1–190 (N-terminus of human Nde1) (domain or fragment)
chain: MEDSGKTFSSEEEEANYWKDLAMTYKQRAENTQEELREFQEGSREYEAELETQLQQIETRNRDLLSENNRLRMELETIKEKFEVQHSEGYRQISALEDDLAQTKAIKDQLQKYIRELEQANDDLERAKRATIMSLEDFEQRLNQAIERNAFLESELDEKENLLESVQRLKDEARDLRQELAVQQKQEKPR
modifications: LD555 dye in the size exclusion experiment
stoichiometry N [4]: 2

Source: PMC10246013 (bioRxiv, 2023)
